# Measured values from article PMC3017601 (Nucleic Acids Research, 2010).
# B1: SMG-9 (natural protein)
# chain: MSESGHSQPGLYGIERRRRWKEPGSGGPQNLSGPGGRERDYIAPWERERRDASEETSTSVMQKTPIILSKPPAERSKQPPPPTAPAAPPAPAPLEKPIVLMKPREEGKGPVAVTGASTPEGTAPPPPAAPAPPKGEKEGQRPTQPVYQIQNRGMGTAAPAAMDPVVGQAKLLPPERMKHSIKLVDDQMNWCDSAIEYLLDQTDVLVVGVLGLQGTGKSMVMSLLSANTPEEDQRTYVFRAQSAEMKERGGNQTSGIDFFITQERIVFLDTQPILSPSILDHLINNDRKLPPEYNLPHTYVEMQSLQIAAFLFTVCHVVIVVQDWFTDLSLYRFLQTAEMVKPSTPSPSHESSSSSGSDEGTEYYPHLVFLQNKARREDFCPRKLRQMHLMIDQLMAHSHLRYKGTLSMLQCNVFPGLPPDFLDSEVNLFLVPFMDSEAESENPPRAGPGSSPLFSLLPGYRGHPSFQSLVSKLRSQVMSMARPQLSHTILTEKNWFHYAARIWDGVRKSSALAEYSRLLA
# Target: the molecule itself
# Experiment: SEC
protein,measurement,value
B1,stoichiometry N,~2
